Consider 15 molecules from patent US20230044278A1 (DYNE THERAPEUTICS, published 2023).

Substitutions are numbered along the chain they refer to. Numbers in names are those of the source.

For assay [1], the target named is T1, recombinant cynomolgus monkey (Macaca fascicularis) transferrin receptor 1 (cynomolgus monkey (Macaca fascicularis), UniProt Q5RDH6 87-760 (Pongo abelii entry), limits assumed).
T1 construct: also called cTfR1; cyno TfR1
T1 chain: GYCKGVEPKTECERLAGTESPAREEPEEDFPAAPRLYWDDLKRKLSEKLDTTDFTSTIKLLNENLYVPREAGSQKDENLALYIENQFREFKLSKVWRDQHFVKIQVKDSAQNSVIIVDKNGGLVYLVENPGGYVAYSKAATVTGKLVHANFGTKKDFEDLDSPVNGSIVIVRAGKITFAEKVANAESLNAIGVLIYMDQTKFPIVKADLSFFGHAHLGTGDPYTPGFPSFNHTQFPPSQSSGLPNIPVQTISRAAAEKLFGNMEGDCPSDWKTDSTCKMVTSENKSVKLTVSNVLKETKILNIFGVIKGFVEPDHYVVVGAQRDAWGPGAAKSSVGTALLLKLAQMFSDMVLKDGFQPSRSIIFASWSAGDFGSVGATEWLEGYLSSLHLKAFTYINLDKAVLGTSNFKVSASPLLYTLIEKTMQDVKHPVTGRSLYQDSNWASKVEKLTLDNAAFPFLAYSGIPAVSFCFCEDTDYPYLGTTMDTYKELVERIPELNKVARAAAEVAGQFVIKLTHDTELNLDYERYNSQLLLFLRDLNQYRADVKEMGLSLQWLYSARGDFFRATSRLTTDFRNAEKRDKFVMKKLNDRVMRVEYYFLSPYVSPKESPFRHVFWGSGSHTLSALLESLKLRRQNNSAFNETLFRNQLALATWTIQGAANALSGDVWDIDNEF
In words: ELISA, thermal stability d9 (after 9 days at high temperature); printed as 'Binding affinity cyno TfR1 d9 (nM)'. The protocol:
The selected Fabs were analyzed for their properties binding to TfR1 by kinetic analysis. For conjugates shown in Table 8 and Table 9, the selected humanized Fabs were conjugated to a DMPK-targeting oligonucleotide ASO300.
(§1) To measure binding of humanized anti-TfR antibodies to TfR1, ELISAs were conducted. High binding, black, flat bottom, 96 well plates (Corning #3925) were first coated with 100 μL/well of recombinant huTfR1 at […] in PBS and incubated at 4° C. overnight. Wells were emptied and residual liquid was removed. Blocking was conducted by adding 200 μL of 1% BSA (w/w) in PBS to each well. Blocking was allowed to proceed for 2 hours at room temperature on a shaker at 300 rpm. After blocking, liquid was removed and wells were washed three times with 300 μL of TBST. Anti-TfR1 antibodies were then added in 0.5% BSA/TBST in triplicate in an 8 point serial dilution (dilution range 5 μg/mL-5 ng/mL). A positive control and isotype controls were also included on the ELISA plate. The plate was incubated at room temperature on an orbital shaker for 60 minutes at 300 rpm, and the plate was washed three times with 300 μL of TBST. Anti-(H+L)IgG-A488 (1:500) (Invitrogen #A11013) was diluted in 0.5% BSA in TBST, and 100 μL was added to each well. The plate was then allowed to incubate at room temperature for 60 minutes at 300 rpm on orbital shaker. The liquid was removed and the plate was washed four times with 300 μL of TBST. Absorbance was then measured at 495 nm excitation and […] (with a 15 nm bandwidth) on a plate reader. Data was recorded and analyzed for EC₅₀. […] ELISA measurements were conducted using cynomolgus monkey (Macaca fascicularis) TfR1 (cTfR1) according to the same protocol described above for hTfR1, and results are shown in FIGS. 1B, 1D, and 1F.
In general terms: An ELISA detects its analyte on a solid surface through an enzyme-linked reagent.

Assay [2] has as its target T2, recombinant human transferrin receptor 1 (human, UniProt P02786 89-760).
T2 construct: also called hTfR1; huTfR1
The assay can be described thus: ELISA, thermal stability d9 (after 9 days at high temperature); printed as 'Binding affinity hTfR1 d9 (nM)'. The protocol: as §1

The target in assay [3] is T1, recombinant cynomolgus monkey (Macaca …). The assay can be described thus: ELISA, Fab-ASO300 conjugate; printed as 'DMPK oligo conjugate binding to cyno TfR1 (nM)'.
Assay [4] deals with T2, recombinant human transferrin receptor 1. The assay can be described thus: ELISA, Fab-ASO300 conjugate; printed as 'DMPK oligo conjugate binding to hTfR1 (nM)'; Table 9 (thermal stability table); DMPK oligo conjugate, hTfR1.
Assay [5] shares this target. The assay can be described thus: ELISA, Fab-ASO300 conjugate; printed as 'DMPK oligo conjugate binding to hTfR1 (nM)'.

B1: humanized anti-TfR Fab 5H12 (VH5-C33Y/Vk4) (Fab, V domains shown)
VH: QVQLVQSGAEVKKPGASVKVSCKASGYSFTDYYINWVRQAPGQGLEWMGWIYPGSGNTRYSERFKGRVTITRDTSASTAYMELSSLRSEDTAVYYCAREDYYPYHGMDYWGQGTLVTVSS
VL: DIVMTQSPDSLAVSLGERATINCRASESVDGYDNSFMHWYQQKPGQPPKLLIFRASNLESGVPDRFSGSGSGTDFTLTISSLQAEDVAVYYCQQSSEDPWTFGQGTKLEIKR
notes: unconjugated; also called 5H12 VH5 (C33Y*)/Vκ4
The term EC50 denotes the concentration that produces a half-maximal response. As for B1, the figures for the EC50 in assay [1] and in assay [2] were 0.26 nM and 1730 nM, respectively.

B2: 5H12 (VH5-C33Y/Vk4) Fab conjugated to DMPK-targeting oligonucleotide ASO300 (Fab, V domains shown)
VH: B1 VH
VL: B1 VL
modifications: ASO300 oligonucleotide covalently conjugated via linker of Formula (C); residue and chain not stated
notes: also called DMPK oligo conjugate
Turning to B2, the EC50 in assay [3] and in assay [4] was 13.9 nM throughout.

B3: humanized anti-TfR Fab 5H12 (VH5-C33Y/Vk3) (Fab, V domains shown)
VH: B1 VH
VL: B1 VL with M4L, G72R
notes: unconjugated; also called 5H12 VH5 (C33Y*)/Vκ3
With B3, the EC50 in assay [1] is 0.69 nM; in assay [2], 71.9 nM.

B4: humanized anti-TfR Fab 5H12 (VH5-C33D/Vk4) (Fab, V domains shown)
VH: B1 VH with Y33D
VL: B1 VL
notes: unconjugated; also called 5H12 VH5 (C33D*)/Vκ4
Turning to B4, the EC50 in assay [1] is 0.63 nM; in assay [2], 92.3 nM.

B5: humanized anti-TfR Fab 3A4 (VH3-N54T/Vk4) (Fab, V domains shown)
VH: EVQLVQSGSELKKPGASVKVSCTASGFNIKDDYMYWVRQPPGKGLEWIGWIDPETGDTEYASKFQDRVTVTADTSTNTAYMELSSLRSEDTAVYYCTLWLRRGLDYWGQGTLVTVSS
VL: DIVMTQSPLSLPVTPGEPASISCRSSKSLLHSNGYTYLFWFQQRPGQSPRLLIYRMSNLASGVPDRFSGSGSGTDFTLKISRVEAEDVGVYYCMQHLEYPFTFGGGTKVEIKR
notes: unconjugated; also called 3A4 VH3 (N54T*)/Vκ4
Turning to B5, the results for the EC50 in assay [1] and in assay [2] were 128 nM and 0.4 nM, respectively.

B6: 3A4 (VH3-N54T/Vk4) Fab conjugated to DMPK-targeting oligonucleotide ASO300 (Fab, V domains shown)
VH: B5 VH
VL: B5 VL
modifications: ASO300 oligonucleotide covalently conjugated via linker of Formula (C); residue and chain not stated
notes: also called 3A4 (VH3-N54T/Vk4) conjugate; DMPK oligo conjugate
For B6, the EC50 in assay [3] was 5.12 nM; in assay [5] it was 2.22 nM.

B7: humanized anti-TfR Fab 3A4 (VH3/Vk4) (Fab, V domains shown)
VH: B5 VH with T55N
VL: B5 VL
notes: unconjugated; also called 3A4 VH3 /Vκ4
In the case of B7, the EC50 came to 878 nM in assay [1] and 0.46 nM in assay [2].

B8: 3A4 (VH3-N54S/Vk4) Fab conjugated to DMPK-targeting oligonucleotide ASO300 (Fab, V domains shown)
VH: B5 VH with T55S
VL: B5 VL
modifications: ASO300 oligonucleotide covalently conjugated via linker of Formula (C); residue and chain not stated
notes: also called 3A4 (VH3-N54S/Vk4) conjugate; DMPK oligo conjugate
Take B8: the values for the EC50 in assay [3] and in assay [5] were 4.1 nM and 2.71 nM, respectively.

B9: humanized anti-TfR Fab 3A4 (VH3-N54S/Vk4) (Fab, V domains shown)
VH: B5 VH with T55S
VL: B5 VL
notes: unconjugated; also called 3A4 VH3 (N54S*)/Vκ4
B9: the EC50 in assay [1] came to 248 nM; in assay [2], 0.65 nM.

B10: humanized anti-TfR Fab 3M12 (VH3/Vk2) (Fab, V domains shown)
VH: QVQLQESGPGLVKPSQTLSLTCSVTGYSITSGYYWNWIRQPPGKGLEWMGYITFDGANNYNPSLKNRVSISRDTSKNQFSLKLSSVTAEDTATYYCTRSSYDYDVLDYWGQGTTVTVSS
VL: DIQMTQSPSSLSASVGDRVTITCRASQDISNFLNWYQQKPGQPVKLLIYYTSRLHSGVPSRFSGSGSGTDFTLTISSLQPEDFATYFCQQGHTLPYTFGQGTKLEIKR
notes: unconjugated; also called 3M12 VH3/Vκ2
For B10, the EC50 in assay [1] is 19.5 nM; in assay [2], 0.98 nM.

B11: 3M12 (VH3/Vk2) Fab conjugated to DMPK-targeting oligonucleotide ASO300 (Fab, V domains shown)
VH: B10 VH
VL: B10 VL
modifications: ASO300 oligonucleotide covalently conjugated via linker of Formula (C); residue and chain not stated
notes: also called 3M12 (VH3/Vk2) conjugate; DMPK oligo conjugate
Take B11: the EC50 was found to be 2.26 nM in assay [3] and 1.14 nM in assay [5].

B12: humanized anti-TfR Fab 3M12 (VH4/Vk2) (Fab, V domains shown)
VH: B10 VH with S23T, M49I
VL: B10 VL
notes: unconjugated; also called 3M12 VH4/Vκ2
In the case of B12, the figures for the EC50 in assay [1] and in assay [2] were 5.01 nM and 0.5 nM, respectively.

B13: 3M12 (VH4/Vk3) Fab conjugated to DMPK-targeting oligonucleotide ASO300 (Fab, V domains shown)
VH: B10 VH with S23T, M49I
VL: B10 VL with F87Y
modifications: ASO300 oligonucleotide covalently conjugated via linker of Formula (C); residue and chain not stated
notes: also called 3M12 (VH4/Vk3) conjugate; DMPK oligo conjugate
For B13, the EC50 in assay [3] was 1.85 nM; in assay [5], 1.18 nM.

B14: humanized anti-TfR Fab 3M12 (VH4/Vk3) (Fab, V domains shown)
VH: B10 VH with S23T, M49I
VL: B10 VL with F87Y
notes: unconjugated; also called 3M12 VH4/Vκ3
B14: the EC50 was 16.4 nM in assay [1] and 0.28 nM in assay [2].

B15: humanized anti-TfR Fab 3M12 (VH3/Vk3) (Fab, V domains shown)
VH: B10 VH
VL: B10 VL with F87Y
notes: unconjugated; also called 3M12 VH3/Vκ3
For the molecule B15, the EC50 in assay [1] worked out at 15.6 nM; in assay [2], 1.49 nM.
